Measurements: US20250009876A1 (H LUNDBECK A S, published 2025)
Like-named read-outs stand apart in the source and are kept apart here.

T1: PACAP38 (Pituitary Adenylate Cyclase-Activating Polypeptide, 38 amino acids) (human, not fully specified; the C-terminal lysine is amidated)
T1 peptide: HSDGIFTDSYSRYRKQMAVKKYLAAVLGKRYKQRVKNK

T2: PACAP27 (Pituitary Adenylate Cyclase-Activating Polypeptide, 27 amino acids) (human, the C-terminal leucine is amidated)
T2 peptide: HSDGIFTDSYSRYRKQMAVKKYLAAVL

T3: VIP (Vasoactive Intestinal Peptide) (human)
T3 construct: also called human VIP
T3 peptide: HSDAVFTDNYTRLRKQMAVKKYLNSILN

T4: PAC1-R on PAC1-R-expressing PC-12 cells (UniProt P32215 20-523)
T4 construct: whole, on cells; also called PAC1 receptor
T4 sequence (looked up): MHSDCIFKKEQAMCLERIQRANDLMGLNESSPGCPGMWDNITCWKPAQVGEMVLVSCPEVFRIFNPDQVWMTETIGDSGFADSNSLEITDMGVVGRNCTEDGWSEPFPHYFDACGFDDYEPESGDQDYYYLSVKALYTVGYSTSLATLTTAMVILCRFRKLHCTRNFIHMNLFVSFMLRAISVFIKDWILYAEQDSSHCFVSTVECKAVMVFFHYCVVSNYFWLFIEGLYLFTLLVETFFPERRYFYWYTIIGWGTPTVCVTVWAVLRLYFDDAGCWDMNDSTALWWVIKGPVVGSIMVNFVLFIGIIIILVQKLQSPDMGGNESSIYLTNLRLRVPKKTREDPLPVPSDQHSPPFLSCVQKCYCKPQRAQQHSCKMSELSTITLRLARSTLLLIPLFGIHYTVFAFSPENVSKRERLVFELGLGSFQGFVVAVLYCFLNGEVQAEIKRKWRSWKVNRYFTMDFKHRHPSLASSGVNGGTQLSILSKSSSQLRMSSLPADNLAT


Key:
[1] = biological target: T1, PACAP38 (Pituitary Adenylate …); assay: cell-based or functional assay
[2] = biological target: T2, PACAP27 (Pituitary Adenylate …); assay: cell-based or functional assay
[3] = biological target: T1, PACAP38 (Pituitary Adenylate …); assay: cell-based or functional assay
[4] = biological target: T1, PACAP38 (Pituitary Adenylate …); assay: cell-based or functional assay
[5] = biological target: T3, VIP (Vasoactive Intestinal Peptide); assay: SPR (ProteOn XPR36), antibody amine-coupled, peptide analyte, 1:1 Langmuir fit
[6] = biological target: T1, PACAP38 (Pituitary Adenylate …); assay: as above
Experimental: (§1) Binding affinities of monoclonal antibodies for human PACAP were estimated using SPR on the PROTEON™ XPR36 (Bio-Rad, Hercules, CA). Antibody was immobilized to the surface of general amine coupling (“GLC” or “GLM”) Chips (Bio-Rad, Hercules, CA). […] Antigen (ranging from 1.23 nM to 100 nM) was typically run sequentially with association times of 2-4 minutes and dissociation times of 3-120 minutes grouped with the PROTEON™ Manager Software (v3.1.0.6 (Bio-Rad, Hercules, CA)) and fitted using a 1:1 Langmuir binding model. Surfaces were regenerated between analyte queries using 0.85% Phosphoric Acid.

[7] = biological target: T2, PACAP27 (Pituitary Adenylate …); assay: as above
Experimental: as §1

[8] = biological target: T2, PACAP27 (Pituitary Adenylate …); assay: inhibition of 0.1 nM 125I-PACAP27 binding to membranes with human PAC1-R long isoform, filter binding
Experimental: To identify antibodies that block PACAP27 binding to PAC1-R, antibodies at an initial concentration of 30 nM were diluted in incubation buffer (50 mM Hepes pH 7.4, 1 mM CaCl₂, 5 mM MgCl₂, 0.2% BSA) and serial 1:3 dilutions were performed. Antibody dilutions (30 nM, 10 nM, 3 nM, 1 nM, 0.3 nM, 0.1 nM, 0.03 nM, 0.01 nM, 0.003 nM and 0.001 nM) were then mixed and pre-incubated at 25° C. for 30 minutes with 0.1 nM of ¹²⁵I-labelled PACAP27 in incubation buffer. The antibody: ¹²⁵I-labelled PACAP27 mixture was then added to 0.5 μg aliquots of cell membranes derived from Chem-1 cells expressing human recombinant PAC1-R long isoform in incubation buffer. The mixture was then incubated for 1 hour at 25° C. Following incubation, the samples were filtered and washed. Afterward, the filters were counted to quantitate ¹²⁵I-labelled PACAP27. As an experimental control, non-specific binding to the cell membranes was estimated using 0.1 μM of […] PACAP27.

[9] = biological target: T4, PAC1-R on PAC1-R-expressing PC-12 cells; assay: cell surface binding assay (DELFIA TRF): antibody pre-incubated with PACAP38, added to PAC1-R-expressing PC-12 cells, detected with Eu anti-human IgG
Experimental: Cells were initially seeded at 1×10⁵ cells/well in a solution of complete RPMI (“cRPMI”: RPMI medium supplemented with 10% sterile heat-inactivated FBS and 1% sterile antibiotic/antimycotic)+10% FBS, and the plates were allowed to incubate overnight at 37° C. On the day of the binding assay, antibodies at an initial concentration of 15 μg/ml were diluted at a 1:3 ratio in DELFIA® binding buffer (50 mM Tris, 150 mM NaCl, 0.1% azide, 2% horse serum) (Perkin-Elmer, Waltham, MA) to a total volume of 60 μL in a separate 96 well round bottom plate. PACAP38 was prepared for the binding assay by diluting it in DELFIA® binding buffer to a concentration of 200 nM, and then 60 μl of the diluted PACAP38 was added to each of the antibody-containing wells to form antibody: antigen complexes. Following addition of PACAP38, the antibody: antigen complexes were incubated at room temperature on a shaker for 1 hour. Separately, the PC-12 cells were prepared for addition of antibody: antigen complexes by washing the cells two times with DELFIA® wash buffer (50 mM Tris, 150 mM NaCl, 0.1% Azide) (Perkin-Elmer, Waltham, MA). After washing the cells two times and following the 1 hour room temperature incubation of the antibody: antigen complexes, 50 μl of the antibody: antigen complex was added to each well containing cells. The mixtures of cells and antibody: antigen complexes were then incubated for 30 minutes at room temperature. Following this 30 minute incubation, each mixture was washed two times with DELFIA® wash buffer (Perkin-Elmer, Waltham, MA).
DELFIA® Europium labeled anti-human IgG detection reagent (Cat #1244-330, Perkin-Elmer, Waltham, MA) was diluted to a concentration of 300 ng/ml in DELFIA® Binding Buffer. Following dilution, 50 μl of the anti-human IgG detection reagent was added to each well containing cells, and a 30 minute incubation at room temperature followed this addition of IgG detection reagent. After completion of the 30 minute room temperature incubation, the cells were then washed two times with DELFIA® wash buffer. Next, 50 μl of DELFIA® Enhancement Solution (Cat #1244-105, Perkin-Elmer, Waltham, MA) was added to each well containing cells for a final 15 minute room temperature incubation with shaking. The plates were then read (TRF, excitation 330 nm, emission 620 nm) on a SPECTRAMAX® (Molecular Devices, Sunnyvale, CA) plate reader.

[10] = biological target: T1, PACAP38 (Pituitary Adenylate …); assay: cell-based or functional assay
[11] = biological target: T2, PACAP27 (Pituitary Adenylate …); assay: cell-based or functional assay
[12] = biological target: T1, PACAP38 (Pituitary Adenylate …); assay: inhibition of 30 nM biotinylated PACAP38 binding to PAC1-R-expressing PC-12 cells, Eu-streptavidin TRF
Experimental: To identify antibodies that block PACAP38 binding to PAC1-R-expressing cells, adherent PC-12 cells (ATCC, Manassas, VA) expressing PAC1-R were used in a Europium-based PAC1-R-expressing cells binding assay. Antibody solutions were incubated with N-terminal biotinylated PACAP38 at 10× the final concentration (100 nM or 30 nM) for 1 hr, then added to PC-12 cells that were plated 24 hrs prior in black clear bottom 96 well plates (COSTAR™, Corning Incorporated, Corning, NY) and further incubated for 1 hr at room temperature. After three washes, the cells were incubated with 20 μl Europium-labeled streptavidin (PerkinElmer, Waltham, MA) for 1 hr at room temperature. Cells were washed three times, then 20 μl DELFIA® Enhancement solution (PerkinElmer, Waltham, MA) was added to each well and incubated for 15 minutes with gentle shaking. Plates were read (Time Resolved Fluorescence (“TRF”)) on SPECTRAMAX® (Molecular Devices, Sunnyvale, CA) plate reader.
FIGS. 14A-14H are representative of the inhibition curves obtained by this method (results are shown for Ab10, Ab20, Ab21, Ab1.H, Ab10.H, Ab21.H, Ab22, and Ab23, respectively) wherein the PAC1-R expressing cells were PC-12 cells.

[13] = biological target: T1, PACAP38 (Pituitary Adenylate …); assay: HTRF binding assay, antibody dilution series on 35 nM biotinylated PACAP38
Experimental: In parallel, 10 μl of an antibody dilution series (highest final concentration of 100 nM) were incubated with 10 μl of N-terminal or C-terminal biotinylated PACAP38 (35 nM final) alone, or in combination with either PACAP27 (350 nM final) or VIP (350 nM final), i.e., 10× PACAP27 or 10× VIP, respectively, in a HTRF plate. 20 μl of Eu³⁺ cryptate labeled anti-hu Fc donor and 20 μl of d2-labeled streptavidin acceptor were added to each well and incubated for 1 hour at room temperature. Fluorescence was measured at 620 and 665 nm with a delay of 300 usec.
EC₅₀ values, i.e. the concentration of an antibody that yields a response halfway between the baseline and the maximum value within a specified time period, were computed for each antibody based upon their binding curves and are shown in Table 1 below. […] A humanized form of antibody Ab1 identified by an appended “.H”, i.e., Ab1.H also bound PACAP38 with high affinity.

[14] = biological target: T3, VIP (Vasoactive Intestinal Peptide); assay: SPR (ProteOn XPR36), antibody amine-coupled, peptide analyte, 1:1 Langmuir fit; SPR, direct binding of VIP to the antibody; weak, KD 3.1E-07 M

Binder | Inhibition of 5 nM PACAP38-induced human VPAC1-R mediated cAMP increase IC50 (pM) [3] | Inhibition of 1 nM PACAP38-induced human VPAC2-R mediated cAMP increase IC50 (pM) [4] | Kd [5] | koff [5] | kon [5] | Kd [6] | koff [6] | kon [6] | Kd [7] | koff [7] | kon [7] | IC50 [8] | Inhibition of 0.1 nM PACAP38-induced PAC1-R mediated cAMP increase IC50 (pM) [10] | Inhibition of 0.1 nM PACAP27-induced PAC1-R mediated cAMP increase IC50 (pM) [11] | IC50 [12] | other results
Ab10.H3 (antibody, human IgG1, kappa, N297A, Full-length humanized variant of Ab10) heavy: not shown light: DIQLTQSPSTLSASVGDRVTITCQSSESVYGNYLAWFQQKPGKAPKFLIYEASKLESGVPSRFSGSGSGTEFTLTISSLQPDDFATYYCAGGDISEGVAFGGGTKVEIKRTVAAPSVFIFPPSDEQLKSGTASVVCLLNNFYPREAKVQWKVDNALQSGNSQESVTEQDSKDSTYSLSSTLTLSKADYEKHKVYACEVTHQGLSSPVTKSFNRGEC | 1520 pM | 301 pM | 91 nM | 0.013 s⁻¹ | 140000 M⁻¹ s⁻¹ | ≤ 0.022 nM | ≤ 1e-05 s⁻¹ | 450000 M⁻¹ s⁻¹ | ≤ 0.059 nM | ≤ 1e-05 s⁻¹ | 170000 M⁻¹ s⁻¹ | 0.21 nM |  |  |  | Inhibition of 0.1 nM PACAP38-induced PAC1-R mediated cAMP increase IC50 (pM) [1]: 30.7 pM; Inhibition of 1 nM PACAP27-induced PAC1-R mediated cAMP increase IC50 (pM) [2]: 321 pM; binding result [9]: no binding (tested: about 70 nM)
Ab21.H (antibody, human IgG1, kappa, N297A, Full-length humanized variant of Ab21) heavy: not shown light: DAQLTQSPSTLSASVGDRVTITCKSSESVYGDYLAWFQQKPGKAPKQLIYDASTLASGVPSRFSGSGSGTEFTLTISSLQPDDFATYYCAGGYVSAGVAFGGGTKVEIKRTVAAPSVFIFPPSDEQLKSGTASVVCLLNNFYPREAKVQWKVDNALQSGNSQESVTEQDSKDSTYSLSSTLTLSKADYEKHKVYACEVTHQGLSSPVTKSFNRGEC | 2100 pM | 1510 pM | 440 nM | 0.059 s⁻¹ | 140000 M⁻¹ s⁻¹ | ≤ 0.021 nM | ≤ 1e-05 s⁻¹ | 480000 M⁻¹ s⁻¹ | ≤ 0.016 nM | ≤ 1e-05 s⁻¹ | 630000 M⁻¹ s⁻¹ | 0.39 nM | 246 pM | 204 pM | 12.7 nM | 
Ab21 (antibody, human IgG1, kappa, N297A, V domains shown, Full-length anti-PACAP antibody; rabbit/human chimeric) VH: QSVEESGGRLVTPGTPLTLTCTVSGIDLSSYYMTWVRQAPGKGLEWVGFIDAGGSAYYATWAKGRFTISKASTTVDLKITSPTTEDTATYFCARDLDLWGPGTLVTVSS VL: AAVLTQTPSPVSAAVGGTVSISCKSSESVYGDYLAWFQQKPGQPPKQLIYDASTLASGVPSRFKGSGSGTQFTLTISGVQCDDAATYYCAGGYVSAGVAFGGGTEVVVKR | 2850 pM | 5220 pM |  |  |  | ≤ 0.027 nM | ≤ 1e-05 s⁻¹ | 370000 M⁻¹ s⁻¹ | ≤ 0.013 nM | ≤ 1e-05 s⁻¹ | 790000 M⁻¹ s⁻¹ |  | 239 pM | 140 pM | 20.3 nM | EC50 [13]: 0.84 nM; Kd [14]: 310 nM; koff [14]: 0.00054 s⁻¹; kon [14]: 1700 M⁻¹ s⁻¹
